Source: patent publication US20190153406

Experiments:
[1] = system: IRS1 (insulin receptor substrate-1), species not stated

Substance	MG53-mediated substrate degradation, Western Blot, HEK293T co-expression (FIG. 17) [1]	degradation of IRβ, Western Blot, HEK293T co-expression (FIG. 16B) (insulin receptor IR)	degradation of precursor protein of IRβ, HEK293T co-expression (insulin receptor IR)	MG53-mediated substrate degradation, Western Blot, HEK293T co-expression (FIG. 16) [1]
human MG53-D-RING truncated mutant	human or mouse MG53-D-RING truncated mutant can hardly mediate IRS1 degradation	–	–	–
mouse MG53-D-RING truncated mutant	–	mouse MG53-D-RING truncated mutant and mouse MG53 S255A mutant can hardly mediate IRβ degradation	mouse MG53-D-RING truncated mutant and mouse MG53 S255A mutant almost completely inhibited MG53-mediated degradation	human or mouse MG53-D-RING truncated mutant can hardly mediate IRS1 degradation
